Assay in all cases: EMSA
The target of data set [1] is GABPα(311-430);GABPβ1(1-157) (;, UniProt Q00422;Q00420 311-430;1-157, |).
The next data set has as its target Pax5(1-149) WT (human, UniProt Q02548 1-149).
The next data set deals with Pax5(1-149) Q22A (human, UniProt Q02548 1-149, Q22A).
For another data set, the target named is T1, Ets-1(280-440) (murine, UniProt P27577 280-440).
T1 sequence: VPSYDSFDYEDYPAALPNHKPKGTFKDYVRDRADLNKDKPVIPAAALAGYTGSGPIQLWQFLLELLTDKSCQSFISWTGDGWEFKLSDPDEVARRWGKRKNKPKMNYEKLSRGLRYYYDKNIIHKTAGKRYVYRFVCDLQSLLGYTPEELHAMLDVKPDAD

The next data set has as its target T2, Ets-1(331-440) (murine, UniProt P27577 331-440).
T2 sequence: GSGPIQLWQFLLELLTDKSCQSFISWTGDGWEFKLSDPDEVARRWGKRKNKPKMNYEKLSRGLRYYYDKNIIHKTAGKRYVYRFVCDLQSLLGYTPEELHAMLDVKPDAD

Data set [2] deals with Pax5(1-149) WT;Ets-1(280-440) (human;murine, UniProt Q02548;P27577 1-149;280-440, |).
The target in data set [3] is Pax5(1-149) WT;GABPα(311-430) (human;, UniProt Q02548;Q00422 1-149;311-430, |).
In data set [4] the target is Pax5(1-149) WT;GABPα(311-430);GABPβ1(1-157) (human;;, UniProt Q02548;Q00422;Q00420 1-149;311-430;1-157, ||).
For data set [5], the target named is Pax5(1-149) Q22A;Ets-1(331-440) (human;murine, UniProt Q02548;P27577 1-149;331-440, Q22A|).
Data set [6] has as its target Pax5(1-149) Q22A;Ets-1(280-440) (human;murine, UniProt Q02548;P27577 1-149;280-440, Q22A|).
The target of data set [7] is Pax5(1-149) Q22A;GABPα(311-430) (human;, UniProt Q02548;Q00422 1-149;311-430, Q22A|).
Data set [8] addresses Pax5(1-149) Q22A;GABPα(311-430);GABPβ1(1-157) (human;;, UniProt Q02548;Q00422;Q00420 1-149;311-430;1-157, Q22A||).
For data set [9], the target named is Pax5(1-149) WT;Ets-1(331-440) (human;murine, UniProt Q02548;P27577 1-149;331-440, |).
Pax5(1-149) WT;Ets-1(331-440), sequence (Q02548 1-149, chain 1 of 2, one chain of several): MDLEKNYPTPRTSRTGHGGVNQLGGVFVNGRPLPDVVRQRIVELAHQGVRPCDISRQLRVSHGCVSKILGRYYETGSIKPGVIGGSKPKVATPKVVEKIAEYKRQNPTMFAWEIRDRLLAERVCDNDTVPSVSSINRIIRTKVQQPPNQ

Pax5(1-149) Q22A;GABPα(311-430);GABPβ1(1-157), sequence (Q02548 1-149 Q22A, chain 1 of 3): as the sequence (Q02548 1-149, chain 1 of 2, one chain of several) above, with Q22A counted along it
Pax5(1-149) Q22A;GABPα(311-430);GABPβ1(1-157), sequence (Q00422 311-430, chain 2 of 3): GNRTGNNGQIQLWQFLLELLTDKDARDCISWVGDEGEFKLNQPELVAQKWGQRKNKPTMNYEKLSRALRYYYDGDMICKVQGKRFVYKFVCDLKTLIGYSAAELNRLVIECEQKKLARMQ
Pax5(1-149) Q22A;GABPα(311-430);GABPβ1(1-157), sequence (Q00420 1-157, chain 3 of 3): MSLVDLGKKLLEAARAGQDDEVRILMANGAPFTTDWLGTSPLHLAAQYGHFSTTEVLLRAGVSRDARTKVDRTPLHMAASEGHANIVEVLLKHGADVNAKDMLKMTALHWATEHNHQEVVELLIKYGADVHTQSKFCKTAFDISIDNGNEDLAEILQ
Pax5(1-149) Q22A;Ets-1(331-440), sequence (Q02548 1-149 Q22A, one chain of several): as the sequence (Q02548 1-149, chain 1 of 2, one chain of several) above, with Q22A counted along it
Pax5(1-149) Q22A, sequence (Q02548 1-149 Q22A): as the sequence (Q02548 1-149, chain 1 of 2, one chain of several) above, with Q22A counted along it
Pax5(1-149) Q22A;GABPα(311-430), sequence (Q02548 1-149 Q22A, chain 1 of 2): as the sequence (Q02548 1-149, chain 1 of 2, one chain of several) above, with Q22A counted along it
Pax5(1-149) Q22A;GABPα(311-430), sequence (Q00422 311-430, chain 2 of 2): as the sequence (Q00422 311-430, chain 2 of 3) above
Pax5(1-149) Q22A;Ets-1(280-440), sequence (Q02548 1-149 Q22A, chain 1 of 2, one chain of several): as the sequence (Q02548 1-149, chain 1 of 2, one chain of several) above, with Q22A counted along it
Pax5(1-149) WT;GABPα(311-430), sequence (Q02548 1-149, chain 1 of 2): as the sequence (Q02548 1-149, chain 1 of 2, one chain of several) above
Pax5(1-149) WT;GABPα(311-430), sequence (Q00422 311-430, chain 2 of 2): as the sequence (Q00422 311-430, chain 2 of 3) above
Pax5(1-149) WT;Ets-1(280-440), sequence (Q02548 1-149, chain 1 of 2, one chain of several): as the sequence (Q02548 1-149, chain 1 of 2, one chain of several) above
Pax5(1-149) WT, sequence (Q02548 1-149): as the sequence (Q02548 1-149, chain 1 of 2, one chain of several) above
Pax5(1-149) WT;GABPα(311-430);GABPβ1(1-157), sequence (Q02548 1-149, chain 1 of 3): as the sequence (Q02548 1-149, chain 1 of 2, one chain of several) above
Pax5(1-149) WT;GABPα(311-430);GABPβ1(1-157), sequence (Q00422 311-430, chain 2 of 3): as the sequence (Q00422 311-430, chain 2 of 3) above
Pax5(1-149) WT;GABPα(311-430);GABPβ1(1-157), sequence (Q00420 1-157, chain 3 of 3): as the sequence (Q00420 1-157, chain 3 of 3) above
GABPα(311-430);GABPβ1(1-157), sequence (Q00422 311-430, chain 1 of 2): as the sequence (Q00422 311-430, chain 2 of 3) above
GABPα(311-430);GABPβ1(1-157), sequence (Q00420 1-157, chain 2 of 2): as the sequence (Q00420 1-157, chain 3 of 3) above

B1: P5-EBS probe (dsDNA)
DNA 1: TCGAAGGGCCACTGGAGCCCATCTCCGGCACGGC
DNA 2: TCGAGCCGTGCCGGAGATGGGCTCCAGTGGCCCT
For B1, the Kd in data set [1] was 234 ± 24.8 nM; in the data set with Pax5(1-149) WT it was 2.4 ± 0.47 nM; in the data set with Pax5(1-149) Q22A it was 1.72 ± 0.37 nM; with Ets-1(331-440), 136 ± 5.29 nM; in [2], 0.49 ± 0.05 nM; in data set [3], 17.8 ± 0.74 nM. Besides, the Kd in data set [4] is 4.08 ± 0.38 nM; in data set [5], 7.89 ± 0.76 nM; in [6], 162 ± 44.3 nM; in data set [7], 6.14 ± 5.38 nM; in data set [8], 3.36 ± 0.14 nM; in [9], 0.89 ± 0.14 nM. For the same molecule, in the data set with Ets-1(280-440), the binding result is reported as “no binding”.

The values above are taken from publication PMC2763353.
